Measurements reported in patent publication US20130059773.

Target: recombinant PCNA (human PCNA cDNA, produced in E. coli from plasmid PETPCNA, purified)

B1: procaspase-9 (protein)
chain: MDEADRRLLRRCRLRLVEELQVDQLWDALLSRELFRPHMIEDIQRAGSGSRRDQARQLIIDLETRGSQALPLFISCLEDTGQDMLASFLRTNRQAAKLSKPTLENLTPVVLRPEIRKPEVLRPETPRPVDIGSGGFGDVGALESLRGNADLAYILSMEPCGHCLIINNVNFCRESGLRTRTGSNIDCEKLRRRFSSLHFMVEVKGDLTAKKMVLALLELAQQDHGALDCCVVVILSHGCQASHLQFPGAVYGTDGCPVSVEKIVNIFNGTSCPSLGGKPKLFFIQACGGEQKDHGFEVASTSPEDESPGSNPEPDATPFQEGLRTFDQLDAISSLPTPSDIFVSYSTFPGFVSWRDPKSGSWYVETLDDIFEQWAHSEDLQSLLLRVANAVSVKGIYKQMPGCFNFLRKKLFFKTS
In the case of B1, the “procaspase-9 cleavage in an in vitro activation assay (neutrophil cytosol, cytochrome c, dATP; western blot of caspase-9)” value is reported as “when purified PCNA was added to the mixture, procaspase-9 cleavage was delayed, with persistent procaspase-9 (47 kDa) and diminished 37-kDa fragment detection”.
